The test addresses human matrix metalloproteinase-9 (MMP-9) (human) (UniProt P14780). Nature of the test: cell-based or functional assay.

For 1 substance, FBGC formation from human monocytes induced with IL-4 and GM-CSF (FBGC/high power field) (FBGC/high power field) and fraction of cells fused results are on record in patent publication US20060002969A1.

Chain of UniProt P14780 (P14780 107-707 Q279R/R574P limits assumed): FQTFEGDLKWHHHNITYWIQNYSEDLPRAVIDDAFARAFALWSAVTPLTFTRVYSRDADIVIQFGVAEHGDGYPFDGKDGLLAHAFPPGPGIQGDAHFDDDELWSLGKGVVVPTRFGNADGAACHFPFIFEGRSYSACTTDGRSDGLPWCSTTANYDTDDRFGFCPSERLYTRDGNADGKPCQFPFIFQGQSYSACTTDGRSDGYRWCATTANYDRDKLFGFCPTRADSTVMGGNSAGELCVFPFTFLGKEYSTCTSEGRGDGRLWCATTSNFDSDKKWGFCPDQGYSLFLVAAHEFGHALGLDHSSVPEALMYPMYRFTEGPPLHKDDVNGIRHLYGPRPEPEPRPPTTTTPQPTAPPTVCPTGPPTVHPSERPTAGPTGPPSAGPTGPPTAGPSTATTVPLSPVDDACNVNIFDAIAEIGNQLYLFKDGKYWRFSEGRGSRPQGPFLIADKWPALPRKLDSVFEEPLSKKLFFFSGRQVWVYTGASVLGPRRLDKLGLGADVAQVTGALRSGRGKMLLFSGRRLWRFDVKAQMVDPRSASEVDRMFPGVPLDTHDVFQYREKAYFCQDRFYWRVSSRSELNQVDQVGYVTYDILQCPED

“anti-human MMP-9 monoclonal antibody (raised in mouse) obtained from Chemicon International (catalog number MAB13415)” came in with an FBGC formation from human monocytes induced with IL-4 and GM-CSF (FBGC/high power field) (FBGC/high power field) of 3.7; a fraction of cells fused of 9.8%.
